Results on six molecules are retold here after patent US20160115241A1 (Amgen, published 2016).

Assay [1] has as its target T1, human CD3 epsilon chain (CD3ε) (human, UniProt P07766 22-207).
T1 construct: also called CD3ε on human T cells; human CD3ε
Briefly: FACS on isolated human T cells; FITC anti-human light chain secondary. On the procedure: (§1) The heterodimeric bispecific antibodies described in Example 1 were produced in HEK 293 cells and were assayed by fluorescence activated cell sorting (FACS) for binding to T cells, which express CD3ε, and to a human ovarian cancer cell line, Ovcar-8, which expresses mesothelin. Briefly, the heterodimeric bispecific antibodies were incubated with about 50,000 Ovcar-8 cells or isolated human or cynomolgus monkey T cells at 4° C. for one hour. The cells were then washed and stained with a fluorescein isothiocyanate (FITC)-conjugated anti-human light chain secondary antibody and analyzed by flow cytometry. The relative binding was represented by the geometric mean of fluorescence intensity.

The target of assay [2] is T2, cynomolgus monkey CD3 epsilon chain (CD3ε) (cynomolgus monkey (Macaca fascicularis), UniProt Q95LI5 22-198).
T2 construct: also called cynomolgus monkey CD3ε; CD3ε on cyno T cells
T2 chain: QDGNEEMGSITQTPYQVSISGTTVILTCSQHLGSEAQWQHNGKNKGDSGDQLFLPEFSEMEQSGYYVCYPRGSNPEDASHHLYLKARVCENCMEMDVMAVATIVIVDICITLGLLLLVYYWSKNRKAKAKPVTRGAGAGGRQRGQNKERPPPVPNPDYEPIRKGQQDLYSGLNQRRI
As to the kind of experiment: FACS on isolated cynomolgus monkey T cells; FITC anti-human light chain secondary. On the procedure: as §1

In assay [3] the target is T2, cynomolgus monkey CD3 epsilon chain …. As to the kind of experiment: cell-based or functional assay.

T1 sequence (P07766 22-207 limits assumed): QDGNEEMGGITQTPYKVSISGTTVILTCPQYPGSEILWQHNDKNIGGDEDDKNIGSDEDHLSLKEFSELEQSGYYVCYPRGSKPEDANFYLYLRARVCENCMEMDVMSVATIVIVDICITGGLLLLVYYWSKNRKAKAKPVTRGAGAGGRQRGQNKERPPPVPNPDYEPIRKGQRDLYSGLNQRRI

B1: P69059.3 (anti-MSLN/CD3ε heterodimeric bispecific antibody) (bispecific antibody)
chain 1: SYELTQPPSVSVSPGQTARITCSGDALPKKYAYWYQQKSGQAPVLVIYEATKRPSGIPERFSGSSSGTMATLTLSGAQVEDEADYYCYSTDSTNYHWVFGGGTKLTVLGGGGGSGGGGSQVQLQESGPGLVKPSQTLSLTCTVSGGSINNNNYYWTWIRQHPGKGLEWIGYIYYSGSTFYNPSLKSRVTISVDTSKTQFSLKLSSVTAADTAVYYCAREDTMTGLDVWGQGTTVTVSSASTKGPSVFPLAPCSRSTSESTAALGCLVKDYFPEPVTVSWNSGALTSGVHTFPAVLQSSGLYSLSSVVTVPSSNFGTQTYTCNVDHKPSNTKVDKTVGGGGSAAAVPRDLEVVAATPTSLLISWDAPHHGVAYYRITYGETGGNSPVQEFTVPGSKSTATISGLKPGVDYTINVYAVLAYPRGYPLSKPISINYRTDYKDDDDKGSSHHHHHH
chain 2: DIQMTQSPSSLSASVGDRVTITCRASQSINNYLNWYQQKPGKAPTLLIYAASSLQSGVPSRFSGSRSGTDFTLTISSLQPEDFAAYFCQQTYSNPTFGQGTKVEVKGGGGSGGGGSEVQLVESGGGLVKPGVSLRLSCAASGFTFSRYSMNWVRQAPGKGLEWVSSISSSGTYIKYADSVKGRFTISRDNAKNSLNLQMNSLRAEDTAVYYCARDRDRYPLDYWGQGTLVTVSSRTVAAPSVFIFPPSDEQLKSGTASVVCLLNNFYPREAKVQWKVDNALQSGNSQESVTEQDSKDSTYSLSSTLTLSKADYEKHKVYACEVTHQGLSSPVTKSFNRGEC
notes: VL(MSLN)-linker-VH(CD3ε)-CL
As for B1, the “FACS binding (geometric mean)” value in assay [1] is 179 geometric mean of fluorescence intensity.

B2: H71362.2 (anti-MSLN/CD3ε heterodimeric bispecific antibody) (bispecific antibody)
chain 1: EVQLVESGGGLVKPGVSLRLSCAASGFTFSRYGMNWVRQAPGKGLEWVSSISSSGTYIKYADSVKGRFTISRDNAKNSLNLQMNSLRAEDTAVYYCARDRDRYPLDYWGQGTLVTVSSASTKGPQVQLQESGPGLVKPSETLSLTCTVSGGSIISHYWSWIRQPPGKGLEWIGYIYYSGSTNYNPSLKSRVTISVDTSKNQFSLKLTSVTAADTAVYYCARDGWSAFDYWGQGTLVTVSSASTKGPSVFPLAPCSRSTSESTAALGCLVKDYFPEPVTVSWNSGALTSGVHTFPAVLQSSGLYSLSSVVTVPSSNFGTQTYTCNVDHKPSNTKVDKTVGGGGSAAAVPRDLEVVAATPTSLLISWDAIGLYPYYYRITYGETGGNSPVQEFTVPGSKSTATISGLKPGVDYTITVYAVSGIFGWNNSKPISINYRTGSSDYKDDDDKGSSHHHHHH
chain 2: SYELTQPPSVSVSPGQTARITCSGDALPKKYAYWYQQKSGQAPVLVIYEATKRPSGIPERFSGSSSGTMATLTLSGAQVEDEADYYCYSTDSTNYHWVFGGGTKLTVLGTVAAPDIQMTQSPSSLSASVGDRVTITCRASQGIRNALGWYQQKPGKAPKRLIYAASSLQSGVPSRFSGSGSGTEFTLTISSLQPEDFATYYCLQHNSYPRTFGQGTKVEIRRTVAAPSVFIFPPSDEQLKSGTASVVCLLNNFYPREAKVQWKVDNALQSGNSQESVTEQDSKDSTYSLSSTLTLSKADYEKHKVYACEVTHQGLSSPVTKSFNRGEC
Turning to B2, the “FACS binding (geometric mean)” value in assay [1] was 354 geometric mean of fluorescence intensity.

B3: P57216.9 (anti-MSLN/CD3ε heterodimeric bispecific antibody) (bispecific antibody)
chain 1: QVQLQESGPGLVKPSQTLSLTCTVSGGSINNNNYYWTWIRQHPGKGLEWIGYIYYSGSTFYNPSLKSRVTISVDTSKTQFSLKLSSVTAADTAVYYCAREDTMTGLDVWGQGTLVTVSSASTKGPEVQLVESGGGLVKPGVSLRLSCAASGFTFSRYSMNWVRQAPGKGLEWVSSISSSGTYIKYADSVKGRFTISRDNAKNSLNLQMNSLRAEDTAVYYCARDRDRYPLDYWGQGTLVTVSSASTKGPSVFPLAPCSRSTSESTAALGCLVKDYFPEPVTVSWNSGALTSGVHTFPAVLQSSGLYSLSSVVTVPSSNFGTQTYTCNVDHKPSNTKVDKTVGGGGSAAAVPRDLEVVAATPTSLLISWDAPHHGVAYYRITYGETGGNSPVQEFTVPGSKSTATISGLKPGVDYTINVYAVLAYPRGYPLSKPISINYRTDYKDDDDKGSSHHHHHH
chain 2: DIQMTQSPSSLSASVGDRVTITCRASQSINNYLNWYQQKPGKAPTLLIYAASSLQSGVPSRFSGSRSGTDFTLTISSLQPEDFAAYFCQQTYSNPTFGQGTKVEVKRTVAAPSSYELTQPPSVSVSPGQTARITCSGDALPKKYAYWYQQKSGQAPVLVIYEATKRPSGIPERFSGSSSGTMATLTLSGAQVEDEADYYCYSTDSTNYHWVFGGGTKLTVLGQPKAAPSVTLFPPSSEELQANKATLVCLISDFYPGAVTVAWKADSSPVKAGVETTTPSKQSNNKYAASSYLSLTPEQWKSHRSYSCQVTHEGSTVEKTVAPTECS
Regarding B3, in assay [1], the “FACS binding (geometric mean)” value is 103 geometric mean of fluorescence intensity.

B4: H69071.4 (anti-MSLN/CD3ε heterodimeric bispecific antibody) (bispecific antibody)
chain 1: QVQLQESGPGLVKPSQTLSLTCTVSGGSINNNNYYWTWIRQHPGKGLEWIGYIYYSGSTFYNPSLKSRVTISVDTSKTQFSLKLSSVTAADTAVYYCAREDTMTGLDVWGQGTLVTVSSGGGGSGGGGSDIQMTQSPSSVSASVGDRVTITCRASQGISSWLAWYQQKPGKAPKLLIYAASSLQSGVPSRFSGSGSGAAFTLTISSLQPEDFATYFCQQANSFPLTFAGGTKVDIKRASTKGPSVFPLAPCSRSTSESTAALGCLVKDYFPEPVTVSWNSGALTSGVHTFPAVLQSSGLYSLSSVVTVPSSNFGTQTYTCNVDHKPSNTKVDKTVGGGGSAAAVPRDLEVVAATPTSLLISWDAPHHGVAYYRITYGETGGNSPVQEFTVPGSKSTATISGLKPGVDYTINVYAVLAYPRGYPLSKPISINYRTDYKDDDDKGSSHHHHHH
chain 2: QVQLVESGGGVVQPGRSLRLSCAASGFTFSSYGMHWVRQAPGKGLEWVAVISYPGNTKYYADSVKGRFTISRDNSKNTLYLQMNSLRAEDTAVYFCARDQKEWRLIFDYWGQGTLVTVSSGGGGSGGGGSDIQMTQSPSSLSASVGDRVTITCRASQSINNYLNWYQQKPGKAPTLLIYAASSLQSGVPSRFSGSRSGTDFTLTISSLQPEDFAAYFCQQTYSNPTFGQGTKVEVKRTVAAPSVFIFPPSDEQLKSGTASVVCLLNNFYPREAKVQWKVDNALQSGNSQESVTEQDSKDSTYSLSSTLTLSKADYEKHKVYACEVTHQGLSSPVTKSFNRGEC
In the case of B4, the entries for the “FACS binding (geometric mean)” value in assay [1] and in assay [2] were 16 geometric mean of fluorescence intensity and 121 geometric mean of fluorescence intensity, respectively. Also, the “Cyno TDCC EC50 (pM), Ovcar-8 target cells with cynomolgus monkey T cells” value in assay [3] was found to be 3.2 pM. Further, the “Cyno TDCC Max killing (%), Ovcar-8 target cells with cynomolgus monkey T cells” value in assay [3] was 88%.

B5: H69070.4 (anti-MSLN/CD3ε heterodimeric bispecific antibody) (bispecific antibody)
chain 1: QVQLVESGGGVVQPGRSLRLSCAASGFTFSSYGMHWVRQAPGKGLEWVAVISYPGNTKYYADSVKGRFTISRDNSKNTLYLQMNSLRAEDTAVYFCARDQKEWRLIFDYWGQGTLVTVSSASTKGPQVQLQESGPGLVKPSETLSLTCTVSGGSIISHYWSWIRQPPGKGLEWIGYIYYSGSTNYNPSLKSRVTISVDTSKNQFSLKLTSVTAADTAVYYCARDGWSAFDYWGQGTLVTVSSASTKGPSVFPLAPCSRSTSESTAALGCLVKDYFPEPVTVSWNSGALTSGVHTFPAVLQSSGLYSLSSVVTVPSSNFGTQTYTCNVDHKPSNTKVDKTVGGGGSAAAVPRDLEVVAATPTSLLISWDAPHHGVAYYRITYGETGGNSPVQEFTVPGSKSTATISGLKPGVDYTINVYAVLAYPRGYPLSKPISINYRTDYKDDDDKGSSHHHHHH
chain 2: DIQMTQSPSSVSASVGDRVTITCRASQGISSWLAWYQQKPGKAPKLLIYAASSLQSGVPSRFSGSGSGAAFTLTISSLQPEDFATYFCQQANSFPLTFAGGTKVDIKRTVAAPDIQMTQSPSSLSASVGDRVTITCRASQGIRNALGWYQQKPGKAPKRLIYAASSLQSGVPSRFSGSGSGTEFTLTISSLQPEDFATYYCLQHNSYPRTFGQGTKVEIRRTVAAPSVFIFPPSDEQLKSGTASVVCLLNNFYPREAKVQWKVDNALQSGNSQESVTEQDSKDSTYSLSSTLTLSKADYEKHKVYACEVTHQGLSSPVTKSFNRGEC
Regarding B5, the “FACS binding (geometric mean)” value in assay [1] is 9 geometric mean of fluorescence intensity. Moreover, in assay [2], the “FACS binding (geometric mean)” value was 127 geometric mean of fluorescence intensity. Further, in assay [3], the “Cyno TDCC EC50 (pM), Ovcar-8 target cells with cynomolgus monkey T cells” value was 3 pM and the “Cyno TDCC Max killing (%), Ovcar-8 target cells with cynomolgus monkey T cells” value was 88%.

B6: P69058.3 (anti-MSLN/CD3ε heterodimeric bispecific antibody) (bispecific antibody)
chain 1: QVQLQESGPGLVKPSQTLSLTCTVSGGSINNNNYYWTWIRQHPGKGLEWIGYIYYSGSTFYNPSLKSRVTISVDTSKTQFSLKLSSVTAADTAVYYCAREDTMTGLDVWGQGTLVTVSSGGGGSGGGGSSSYELTQPPSVSVSPGQTARITCSGDALPKKYAYWYQQKSGQAPVLVIYEATKRPSGIPERFSGSSSGTMATLTLSGAQVEDEADYYCYSTDSTNYHWVFGGGTKLTVLGASTKGPSVFPLAPCSRSTSESTAALGCLVKDYFPEPVTVSWNSGALTSGVHTFPAVLQSSGLYSLSSVVTVPSSNFGTQTYTCNVDHKPSNTKVDKTVGGGGSAAAVPRDLEVVAATPTSLLISWDAPHHGVAYYRITYGETGGNSPVQEFTVPGSKSTATISGLKPGVDYTINVYAVLAYPRGYPLSKPISINYRTDYKDDDDKGSSHHHHHH
chain 2: EVQLVESGGGLVKPGVSLRLSCAASGFTFSRYGMNWVRQAPGKGLEWVSSISSSGTYIKYADSVKGRFTISRDNAKNSLNLQMNSLRAEDTAVYYCARDRDRYPLDYWGQGTLVTVSSGGGGSGGGGSDIQMTQSPSSLSASVGDRVTITCRASQSINNYLNWYQQKPGKAPTLLIYAASSLQSGVPSRFSGSRSGTDFTLTISSLQPEDFAAYFCQQTYSNPTFGQGTKVEVKRTVAAPSVFIFPPSDEQLKSGTASVVCLLNNFYPREAKVQWKVDNALQSGNSQESVTEQDSKDSTYSLSSTLTLSKADYEKHKVYACEVTHQGLSSPVTKSFNRGEC
notes: VH(CD3ε)-linker-VL(MSLN)-CL
Turning to B6, in assay [1], the “FACS binding (geometric mean)” value was 290 geometric mean of fluorescence intensity.
